Biological target: the molecule itself
Assay: not stated; HEK293T cells with forced expression or knockdown of TOX and TOX2; bands told by apparent size (Supplementary Fig. 3B)

B1: TOX-Flag (full-length TOX) (natural protein, UniProt O94900 1-526, looked up)
chain: MDVRFYPPPAQPAAAPDAPCLGPSPCLDPYYCNKFDGENMYMSMTEPSQDYVPASQSYPGPSLESEDFNIPPITPPSLPDHSLVHLNEVESGYHSLCHPMNHNGLLPFHPQNMDLPEITVSNMLGQDGTLLSNSISVMPDIRNPEGTQYSSHPQMAAMRPRGQPADIRQQPGMMPHGQLTTINQSQLSAQLGLNMGGSNVPHNSPSPPGSKSATPSPSSSVHEDEGDDTSKINGGEKRPASDMGKKPKTPKKKKKKDPNEPQKPVSAYALFFRDTQAAIKGQNPNATFGEVSKIVASMWDGLGEEQKQVYKKKTEAAKKEYLKQLAAYRASLVSKSYSEPVDVKTSQPPQLINSKPSVFHGPSQAHSALYLSSHYHQQPGMNPHLTAMHPSLPRNIAPKPNNQMPVTVSIANMAVSPPPPLQISPPLHQHLNMQQHQPLTMQQPLGNQLPMQVQSALHSPTMQQGFTLQPDYQTIINPTSTAAQVVTQAMEYVRSGCRNPPPQPVDWNNDYCSSGGMQRDKALYLT
notes: TOX, full length (526 residues by the printed limits of TOX(C) 257-526), in pCDH vector; Both are written as this one molecule; source: HEK293T, transfected, in lysate; not shown: Flag, C-terminal, kept
stoichiometry N: 2
